Measurements published in article PMC5768788.

Biological target: 14-3-3γ (UniProt P61981)
Assay: co-immunoprecipitation and immunoblot
Conditions: reference: wild-type Flag-PP1α; sites S224,T226

PP1α (from UniProt P62136) S224A/T226A
binding against the reference: weaker
